In test [1] the target is rfibulin-4 and rfibulin-5 (mouse). Briefly: SPR; Ltbp-4L-2xStrep and Ltbp-4S-2xStrep after PNGase F digest under non-denaturing conditions, flown over rfibulin-4 and rfibulin-5 immobilized on a Biacore chip; response compared before and after deglycosylation; n=2. A general note: In SPR one partner is held on a chip, and binding of the other changes the refractive index at the surface.

In test [2] the target is T1, recombinant full-length fibulin-5 (mouse, UniProt Q9WVH9 24-448).
T1 construct: Fibulin-5, mouse, full length after the signal peptide; also called rfibulin-5; source: HEK 293 EBNA cells, stably expressed, purified from conditioned medium (streptactin-Sepharose)
T1 sequence (looked up): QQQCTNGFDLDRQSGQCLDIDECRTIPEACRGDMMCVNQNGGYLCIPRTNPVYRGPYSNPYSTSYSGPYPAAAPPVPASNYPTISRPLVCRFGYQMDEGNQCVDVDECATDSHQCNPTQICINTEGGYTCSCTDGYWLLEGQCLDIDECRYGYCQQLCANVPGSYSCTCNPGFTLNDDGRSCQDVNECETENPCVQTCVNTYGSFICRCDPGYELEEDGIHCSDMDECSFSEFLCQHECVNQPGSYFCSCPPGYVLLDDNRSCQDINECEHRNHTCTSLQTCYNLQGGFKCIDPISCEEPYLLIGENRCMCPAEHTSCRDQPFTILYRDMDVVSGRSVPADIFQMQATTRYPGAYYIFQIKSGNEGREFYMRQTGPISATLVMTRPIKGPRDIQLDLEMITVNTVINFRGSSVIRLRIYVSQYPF
The experiment in a line: SPR; BIAcore2000; 570 RUs of rfibulin-4 or 390 RUs of rfibulin-5 amine-coupled to carboxymethyldextran hydrogel 500M chips; Ltbp-4L-2xStrep (0-320 nM) or Ltbp-4S-2xStrep (0-80 nM) flown over as analyte; 1:1 Langmuir fits, kobs plotted against concentration; apparent Kd = koff/kon. Conditions: both partners purified.

Test [3] has as its target T2, recombinant full-length fibulin-4 (mouse, UniProt Q9WVJ9 28-443).
T2 construct: Fibulin-4, mouse, full length after the signal peptide; also called rfibulin-4; source: HEK 293 EBNA cells, stably expressed, purified from conditioned medium (streptactin-Sepharose)
T2 sequence (looked up): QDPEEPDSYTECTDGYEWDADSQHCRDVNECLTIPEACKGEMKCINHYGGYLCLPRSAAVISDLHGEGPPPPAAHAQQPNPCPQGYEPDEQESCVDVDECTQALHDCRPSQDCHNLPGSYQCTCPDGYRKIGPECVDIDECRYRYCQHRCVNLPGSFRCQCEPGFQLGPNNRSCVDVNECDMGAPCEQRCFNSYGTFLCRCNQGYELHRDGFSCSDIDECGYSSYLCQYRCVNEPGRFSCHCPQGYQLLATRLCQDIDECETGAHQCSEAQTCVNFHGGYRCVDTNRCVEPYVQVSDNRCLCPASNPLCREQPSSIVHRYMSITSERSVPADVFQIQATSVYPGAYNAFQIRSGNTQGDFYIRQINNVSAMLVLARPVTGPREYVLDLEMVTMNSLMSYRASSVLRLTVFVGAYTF
The test is described as above. Conditions: both partners purified.

Molecule “Ltbp-4S-2xStrep after deglycosylation with PNGase F under non-denaturing conditions (domain or fragment)” registered a percent increase of the SPR signal after deglycosylation (against Ltbp-4S-2xStrep before deglycosylation) in test [1] of 15 to 20%.

B1: Ltbp-4S-2xStrep (N-terminal fragment of mouse Ltbp-4S) (domain or fragment, UniProt Q8K4G1-2 27-211, looked up)
chain: RPRERLRVRFTPAVCGLRCIHGPTGSRCTPTCAPRNATSVDSGAPGGAAPGGPGFRAFLCPLICHNGGVCVKPDRCLCPPDFAGKFCQLHSSGARPPAPAMPGLTRSVYTMPLANHRDDEHGVASMVSVHVEHPQEASVVVHQVERVSGPWEEANPEALARAEAAARAEAAAPYTVLAQSAPRED
modifications: N-linked glycosylation (shift after PNGase F), residue not given
notes: the first 185 amino acids after the signal peptide (Arg27-Asp211); numbers count on: the short isoform Ltbp-4S; Cloned into a modified pCEP-Pu vector with a 3' 2xStrepII tag through NheI and XhoI; also called N-terminal Ltbp-4S; Ltbp-4S N-terminal fragment; source: HEK 293 EBNA cells, stably expressed, purified from conditioned medium (streptactin-Sepharose); not shown: 2xStrepII, C-terminal, kept
A word on the koff: it is a measure of how fast the partners let go of each other. As usually defined, the kon is the rate constant with which the complex forms. B1: in test [2], the Kd is 15.8 nM, the koff came to 0.0158 s⁻¹ and the kon came to 1e+06 M⁻¹ s⁻¹. Moreover, in test [3], the Kd is 15.4 nM, the koff was determined as 0.0108 s⁻¹ and the kon worked out at 700000 M⁻¹ s⁻¹.

B2: Ltbp-4L-2xStrep (N-terminal fragment of mouse Ltbp-4L) (domain or fragment, UniProt Q8K4G1-1 25-277, looked up)
chain: SGSSPSPSPSPIEKAVVPSHQAGVAACHCCLDQTPKSSRCTRASCRVRNCPPAKCTGLEGCLTPTPSVPSPSRSPVEKSQVSLNWQPLTLQEARALLRQRRPRGPWARALLKRRPPHRAPAGQARVLCPLICHNGGVCVKPDRCLCPPDFAGKFCQLHSSGARPPAPAMPGLTRSVYTMPLANHRDDEHGVASMVSVHVEHPQEASVVVHQVERVSGPWEEANPEALARAEAAARAEAAAPYTVLAQSAPRED
notes: the first 253 amino acids after the signal peptide (Ser25-Asp277); numbers count on: the long isoform Ltbp-4L; Cloned into a modified pCEP-Pu vector with a 3' 2xStrepII tag through NheI and XhoI; also called N-terminal Ltbp-4L; Ltbp-4L N-terminal fragment; source: HEK 293 EBNA cells, stably expressed, purified from conditioned medium (streptactin-Sepharose); not shown: 2xStrepII, C-terminal, kept
Consider B2, for which, in test [2], the Kd is 2.4 nM, the koff came to 0.0053 s⁻¹ and the kon turned out to be 2.2e+06 M⁻¹ s⁻¹. In test [3], the Kd is 3.1 nM, the koff was found to be 0.0041 s⁻¹ and the kon came to 1.3e+06 M⁻¹ s⁻¹.

For the origin of these results see PMC4381339, “Modeling autosomal recessive cutis laxa type 1C in mice reveals distinct functions for Ltbp-4 isoforms” (Disease Models & Mechanisms, 2015).
